Experiments:
[1] = 14C assay: 14CO2 capture from [14C]-carboxyl-labeled dicamba with IPTG-induced recombinant E. coli cells; conditions: dicamba decarboxylation activity
[2] = Enzyme kinetic characterization (kcat, KM, kcat/KM) of dicamba decarboxylase variants (Table 9); conditions: substrate dicamba; purified protein

B1: 126 (protein)
chain: MAQGKVALEEHFAIPETLQDSAGFVPGDYWKELQHRLLDIQDTRLKLMDAHGIETMILSLAAPAVQAIPDRRKAIEIARRANDFLAEECAKRPDRFLAFAALPLQDPDAATEELQRCVNDLGFVGALVNGFSQEGDGQTPLYYDLPQYRPFWGEVEKLDVPFYLHPRNPLPQDSRIYDGHPWLLGPTWAFAQETAVHALRLMASGLFDEHPRLNIILGHMGEGLPYMMYRIDHRIAWVKLPPRYPAKRRFMDYFNENFHITTSGNFRTQTLIDAILEIGADRILFSTDWPFENIDHAADWFNATSIAEADRVKIGRTNARRLFKLDGA
modifications: Dicamba decarboxylase variant clone S03970792
Enzymatic Detection level [1]: High | kcat [2]: 0.03967 s⁻¹

Source: patent publication US20140289906A1, “Compositions Having Dicamba Decarboxylase Activity and Methods of Use” (priority 2013, published 2014)
